Experimental data: patent publication US10689429B2, “Double-acylated GLP-1 compounds” (Novo Nordisk A/S, priority 2014, dated 2020)
*1 amine or outer side, *2 acyl side, *3 side chain or, on linkers, in order; H or OH if unused. Where no end group is shown, it is not given here. Side-chain parts run from the residue outwards. [ ]: non-standard residue; d: D form. The star is where a group is joined. Dodecanoyl(12-OPh(4-COOH)) = O=C(O)c1ccc(OCCCCCCCCCCCC(=O)*)cc1; 9‑(3-carboxyphenoxy)nonanoyl = O=C(O)c1cccc(OCCCCCCCCC(=O)*)c1; Undecanoyl(11-OPh(4-COOH)) = O=C(O)c1ccc(OCCCCCCCCCCC(=O)*)cc1; Decanoyl(10-(4-HOOC-PhO)) = O=C(O)c1ccc(OCCCCCCCCCC(=O)*)cc1; Decanoyl(10-O(3-COOH-Ph)) = O=C(O)c1cccc(OCCCCCCCCCC(=O)*)c1; γGlu = O=C(O)[C@H](CCC(=O)[*:2])N[*:1]; C14 diacid = O=C(O)CCCCCCCCCCCCC(=O)*; AEEA = NCCOCCOCC(=O)O; Aib = CC(C)(N)C(=O)O

Assays:
human GLP-1 receptor [1] = biological target: T1, human GLP-1 receptor (human, UniProt P43220)
Target sequence in this assay (P43220 24-463): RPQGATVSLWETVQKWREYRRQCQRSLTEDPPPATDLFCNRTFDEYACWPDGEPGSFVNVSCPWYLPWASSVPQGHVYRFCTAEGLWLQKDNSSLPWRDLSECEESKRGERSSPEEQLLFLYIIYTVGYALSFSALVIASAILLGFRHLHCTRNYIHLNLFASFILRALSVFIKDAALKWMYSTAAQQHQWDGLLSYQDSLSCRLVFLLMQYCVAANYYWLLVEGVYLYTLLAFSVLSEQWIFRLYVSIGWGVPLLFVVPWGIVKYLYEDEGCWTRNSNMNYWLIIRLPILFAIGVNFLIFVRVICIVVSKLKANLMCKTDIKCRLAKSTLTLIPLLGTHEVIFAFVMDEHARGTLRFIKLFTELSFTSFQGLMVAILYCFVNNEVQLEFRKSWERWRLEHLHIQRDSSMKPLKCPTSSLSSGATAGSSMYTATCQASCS

human GLP-1 receptor [2] = biological target: T1, human GLP-1 receptor; test: displacement of [125I]-GLP-1-(7-36)NH2 from membranes with human GLP-1 receptor, SPA, high HSA (2.0%)
Procedure: Each derivative is added in a series of concentrations to isolated membranes containing the human GLP-1 receptor and displacement of the labelled ligand is monitored. The receptor binding is reported as the concentration at which half of the labelled ligand is displaced from the receptor, the $IC50$ value.
For the receptor binding assay in the presence of low HSA (0.001%) 50 μl of the assay buffer was added to each well of an assay plate. […] For the receptor binding assay in the presence of high HSA (2.0%) 50 μl of the 8% albumin stock was added to each well of an assay plate. […] Cell membrane aliquots were thawed and diluted to their working concentration. Fifty μl were added to each well in the assay plate. […] WGA SPA beads were suspended in assay buffer at 20 mg/ml. The suspension was diluted to 10 mg/ml in assay buffer just prior to addition to the assay plate. Fifty μl were added to each well in the assay plate. […] A 25 μl aliquot was reserved for measuring total counts/well. […] The assay plate was incubated for 2 h at 30° C. […] The assay plate was centrifuged for 10 min. […] The assay plate was read in a Packard TopCount NXT instrument.

B1: GLP-1 derivative of Example 26 (peptide)
peptide: H[Aib]EGTFTSDVSSYLEEQAAREFIAWLVRGK([AEEA-AEEA-γGlu-Dodecanoyl(12-OPh(4-COOH))])K([AEEA-AEEA-γGlu-Dodecanoyl(12-OPh(4-COOH))])
EC50/pM (0% HSA) (human GLP-1 receptor [1]): 1.5 pM | EC50/pM (1% HSA) (human GLP-1 receptor [1]): 124 pM | IC50 (human GLP-1 receptor [2]): 360 nM

B2: GLP-1 derivative of Example 13 (peptide)
peptide: H[Aib]EGTFTSDVSSYLEEQAAREFIAWLVRGK([AEEA-γGlu-γGlu-C14 diacid])K([AEEA-γGlu-γGlu-C14 diacid])
EC50/pM (0% HSA) (human GLP-1 receptor [1]): 1.3 pM | EC50/pM (1% HSA) (human GLP-1 receptor [1]): 18 pM | IC50 (human GLP-1 receptor [2]): 201 nM

B3: GLP-1 derivative of Example 28 (peptide)
peptide: H[Aib]EGTFTSDVSSYLEEQAAREFIEWLVRGK([AEEA-AEEA-AEEA-AEEA-γGlu-Decanoyl(10-O(3-COOH-Ph))])K([AEEA-AEEA-AEEA-AEEA-γGlu-Decanoyl(10-O(3-COOH-Ph))])
EC50/pM (0% HSA) (human GLP-1 receptor [1]): 12 pM | EC50/pM (1% HSA) (human GLP-1 receptor [1]): 25 pM | IC50 (human GLP-1 receptor [2]): 173 nM

B4: GLP-1 derivative of Example 3 (peptide)
peptide: H[Aib]EGTFTSDVSSYLEEQAAREFIAWLVRGK([AEEA-AEEA-γGlu-Decanoyl(10-(4-HOOC-PhO))])K([AEEA-AEEA-γGlu-Decanoyl(10-(4-HOOC-PhO))])
EC50/pM (0% HSA) (human GLP-1 receptor [1]): 1.2 pM | EC50/pM (1% HSA) (human GLP-1 receptor [1]): 28 pM | IC50 (human GLP-1 receptor [2]): 77 nM

B5: GLP-1 derivative of Example 5 (peptide)
peptide: H[Aib]EGTFTSDVSSYLEEQAAREFIAWLVRGK([AEEA-AEEA-γGlu-C14 diacid])K([AEEA-AEEA-γGlu-C14 diacid])
EC50/pM (0% HSA) (human GLP-1 receptor [1]): 1.1 pM | EC50/pM (1% HSA) (human GLP-1 receptor [1]): 22 pM | IC50 (human GLP-1 receptor [2]): 144 nM

B6: GLP-1 derivative of Example 12 (peptide)
peptide: H[Aib]EGTFTSDVSSYLEEQAAREFIAWLVRGK([AEEA-AEEA-AEEA-γGlu-C14 diacid])K([AEEA-AEEA-AEEA-γGlu-C14 diacid])
EC50/pM (0% HSA) (human GLP-1 receptor [1]): 1.2 pM | EC50/pM (1% HSA) (human GLP-1 receptor [1]): 10 pM | IC50 (human GLP-1 receptor [2]): 70 nM

B7: GLP-1 derivative of Example 23 (peptide)
peptide: H[Aib]EGTFTSDVSSYLEEQAAREFIAWLVRGK([AEEA-AEEA-γGlu-9‑(3-carboxyphenoxy)nonanoyl])K([AEEA-AEEA-γGlu-9‑(3-carboxyphenoxy)nonanoyl])
EC50/pM (0% HSA) (human GLP-1 receptor [1]): 7.7 pM | EC50/pM (1% HSA) (human GLP-1 receptor [1]): 15 pM | IC50 (human GLP-1 receptor [2]): 193 nM

B8: GLP-1 derivative of Example 7 (peptide)
peptide: H[Aib]EGTFTSDVSSYLEEQAAREFIAWLVQGK([AEEA-AEEA-γGlu-Undecanoyl(11-OPh(4-COOH))])K([AEEA-AEEA-γGlu-Undecanoyl(11-OPh(4-COOH))])
EC50/pM (0% HSA) (human GLP-1 receptor [1]): 1.5 pM | EC50/pM (1% HSA) (human GLP-1 receptor [1]): 143 pM | IC50 (human GLP-1 receptor [2]): 233 nM
